Changes are numbered by the printed parent chain.
T1: mouse CCR8 (mouse)
T1 chain: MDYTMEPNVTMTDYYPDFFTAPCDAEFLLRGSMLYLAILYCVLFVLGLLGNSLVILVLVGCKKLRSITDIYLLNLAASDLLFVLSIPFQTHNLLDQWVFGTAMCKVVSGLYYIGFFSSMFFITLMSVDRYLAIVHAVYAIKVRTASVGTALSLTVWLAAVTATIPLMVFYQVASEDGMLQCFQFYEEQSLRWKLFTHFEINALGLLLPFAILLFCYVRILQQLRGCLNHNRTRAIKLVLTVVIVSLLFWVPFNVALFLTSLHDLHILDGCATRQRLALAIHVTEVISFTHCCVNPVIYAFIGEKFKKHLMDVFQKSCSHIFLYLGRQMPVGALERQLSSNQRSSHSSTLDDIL

B1: 11F5-SG-11F5-AG (antibody, V domains shown)
VH: EVQLVESGGGVVQPGRSLRLSCAASGFTFSSYVVHWVRQAPGKGLEWVAVISYSGDNKFYADSVKGRFTISRDNSKNTLYLQMNSLRTEDTAVYYCARGRNYYYYYGLDVWGQGTTVTVSS
VL: DIVMTQTPLSLSVTPGQPASISCKSSQSLLYSAGKTYLYWYLQKAGQPPQLLIYEVSNRFSGVPDRFSGSGSGTDFTLKISRVEAEDVGVFYCMQSLKVPPTFGQGTKVDIK
B2: 11F5-DA-11F5-AG (antibody, V domains shown)
VH: B1 VH with S54D, G55A
VL: B1 VL
B3: 11F8-SG-11F8-DA (antibody, V domains shown)
VH: QVQLVESGGGVVQPGRSLRLSCAASGFTFSTYVMHWVRQAPGKGLEWVAVISYSGNNKYYADSVKGRFIISRDNSKNTLFLQMNSLRGEDTAVYYCARGRSYVNYYGLDVWGQGTTVTVSS
VL: DIVMTQTPLSLSVTPGQPASISCKSSQSLLYSDAKTYLYWYLQKPGQPPHLLIYEVSNRFSGVPKRFSGSGSGTDFTLKISRVEAEDVGVYYCMQSVKIPLTFGGGTKVEIK
B4: 11F8-AG-11F8-AG (antibody, V domains shown)
VH: B3 VH with S54A
VL: B3 VL with D33A, A34G
B5: 11F8-DA-11F8-DA (antibody, V domains shown)
VH: B3 VH with S54D, G55A
VL: B3 VL
B6: 11B12-SG-11B12-SG (antibody, V domains shown)
VH: QVQLVESGGGVVQPGRSLRLSCAASGFSFSSYVMHWVRQAPGKGLEWVAVISYSGSDKYYADSVKGRFTISRDNSKNTLFLQMNSLRPEDTAVYYCARGRGYRYGQSYYYGMDVWGQGTTVTVSS
VL: B3 VL with D33S, A34G, H50Q, L51I, Y54F, K65D, V97I, I99L
B7: 11F8-AG-11F8-DA (antibody, V domains shown)
VH: B3 VH with S54A
VL: B3 VL
B8: 11F5-11F8 (antibody, V domains shown)
VH: B1 VH with S54D
VL: B3 VL with A34G
B9: 11B12-11F5 (antibody, V domains shown)
VH: B6 VH with S54D
VL: B1 VL with A33D
B10: 11F8-SG-11F8-AG (antibody, V domains shown)
VH: B3 VH
VL: B3 VL with D33A, A34G
B11: 11B12-SG-11B12-DA (antibody, V domains shown)
VH: B6 VH
VL: B3 VL with H50Q, L51I, Y54F, K65D, V97I, I99L
B12: 11F8-11B12 (antibody, V domains shown)
VH: B3 VH with S54D
VL: B3 VL with A34G, H50Q, L51I, Y54F, K65D, V97I, I99L
B13: 11F8-11F5 (antibody, V domains shown)
VH: B3 VH with S54D
VL: B1 VL with A33D
B14: 11B12-AG-11B12-SG (antibody, V domains shown)
VH: B6 VH with S54A
VL: B3 VL with D33S, A34G, H50Q, L51I, Y54F, K65D, V97I, I99L
B15: 11B12-SG-11B12-AG (antibody, V domains shown)
VH: B6 VH
VL: B3 VL with D33A, A34G, H50Q, L51I, Y54F, K65D, V97I, I99L
B16: 11F5-DA-11F5-DA (antibody, V domains shown)
VH: B1 VH with S54D, G55A
VL: B1 VL with A33D, G34A
B17: 11B12-AG-11B12-DA (antibody, V domains shown)
VH: B6 VH with S54A
VL: B3 VL with H50Q, L51I, Y54F, K65D, V97I, I99L
B18: 11F8-AG-11F8-SG (antibody, V domains shown)
VH: B3 VH with S54A
VL: B3 VL with D33S, A34G
B19: 11F5-SG-11F5-DA (antibody, V domains shown)
VH: B1 VH
VL: B1 VL with A33D, G34A
B20: 11F5-DA-11F5-SG (antibody, V domains shown)
VH: B1 VH with S54D, G55A
VL: B1 VL with A33S
B21: 11F8-DA-11F8-SG (antibody, V domains shown)
VH: B3 VH with S54D, G55A
VL: B3 VL with D33S, A34G
B22: 11F8-DA-11F8-AG (antibody, V domains shown)
VH: B3 VH with S54D, G55A
VL: B3 VL with D33A, A34G

Target: T1, mouse CCR8
Experiment: FACS

EC50 [µg/mL] | Binder
0.092 | B1
0.463 | B2
0.173 | B3
0.148 | B4
0.128 | B5
0.041 | B6
0.171 | B7
0.184 | B8
0.171 | B9
0.218 | B10
0.059 | B11
0.155 | B12
0.116 | B13
0.038 | B14
0.042 | B15
0.253 | B16
0.074 | B17
0.149 | B18
0.138 | B19

Each binder was assayed against human CCR8 (human) (assay: FACS).
Sequence of human CCR8 (human) (chain, as listed by the source): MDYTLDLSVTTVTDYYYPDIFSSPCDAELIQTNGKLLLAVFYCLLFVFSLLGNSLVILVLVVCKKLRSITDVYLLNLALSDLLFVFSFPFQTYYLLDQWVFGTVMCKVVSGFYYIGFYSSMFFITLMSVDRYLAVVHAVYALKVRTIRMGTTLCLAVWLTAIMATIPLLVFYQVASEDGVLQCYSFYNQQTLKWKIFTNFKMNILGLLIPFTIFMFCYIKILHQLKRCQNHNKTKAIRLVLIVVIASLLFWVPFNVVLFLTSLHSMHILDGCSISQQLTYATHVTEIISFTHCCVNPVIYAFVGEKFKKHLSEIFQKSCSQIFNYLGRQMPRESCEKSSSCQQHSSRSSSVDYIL

EC50 [µg/mL] | Binder
0.069 | B1
0.124 | B20
0.049 | B3
0.033 | B4
0.222 | B5
0.154 | B21
0.048 | B6
0.12 | B7
0.162 | B8
0.298 | B9
0.05 | B10
0.064 | B11
0.075 | B12
0.137 | B13
0.043 | B14
0.047 | B15
0.076 | B22
0.392 | B16
0.073 | B17
0.15 | B19
